Test results as given in the domain aggregation screens of Martell et al. (2025).

Test: soluble fraction after stress (log2 fold change); higher = more stays soluble; pooled small domains, quantitative proteomics
Settings: stress: 75 degC
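Also: 20 min heating vs room temperature control held 20 min.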

Row | Sequence | soluble fraction (log2)
1 | HMGGVTVQNRETHVNSTVNVRSEQTTESERVALAYQGDAITQIESYENGWSKVEYKGLSGYVMTEYL | 0.275
2 | HMLESVMHSRIAEIISREGTAPAHMSMQEKIRVVHKLDADGILMMKGAVAEIADQLSVSVPTIYRYLNKPQ | -2.49
3 | HMENFIPDDPKRIEIGMSVLHQRFGKGKVMQLEGNLPDMKATVNFEGEGQKQLLLKYARLKIV | -0.99
4 | HMDEFTIILEDAGSQKIAVIKEVRVLNSSLGLKEAKDLVDATPATIMEKADKATADKAKAAFEAAGAKVTI | -0.257
5 | HMESYWVVLRPMAAGTQIGANDLGYRSVALGAAAKNYLAASTNPIGSITRRRLVAGELLQGSSLTDDARA | -0.653
6 | HMSTVTEVHYIAFKNGRIVDIKAALTGSAVTATSIKEQPKIENYNYTTSEVRDGILYHTYAPVA | -2.37
7 | HMGGLAEGTKITLQNTVNVRASMGEDAEKIGTAYAGEKVTVIMSYAEGWTKVTWNDKTGYIKTSLL | -1.5
8 | HMSAPVFRITPAGVVVNGLKRSDILTLTRIDGAMNTLPHNAGEVLVSTEGLAKGVYVITAGGKSLKFLV | -1.85
9 | HMTGYVMIRVDGLSLEKFLNMAAEAGVRVSDVRRASYTVLYAVVSPRDLKKLQSVAPEKYTVTVR | -1.18
10 | HMGRPTLEQLLDRAQAMGVPRERYAAYADRRWGRGWRVNPHGRGRAWDELDRYRNDPAGYLDKIEVELNQL | -0.341
11 | HMGQAELPYSEFLREVNNGQVKSVIIEGSEITGFYKTSGTSFNVIAPDDPKLVERLMAQGVEVRAQPA | 0.144
12 | HMSDYYEVLGVTRQADAEEIKRAYRRKARQLHPDVAGPGHEEEFKEVTVAYEVLSDPEKRQAYDLGGQDAL | 0.0155
13 | HMGLDMSLEREQHRALREASQWYARLADEQVDSDAERAWRHWVAADEANQRAWQYIEAVSQRFDG | -0.605
14 | HMLPRNKRIEIALTYIYGLGRHAATVVLKHANISPDKRTDDLDENDVRKLRDAIDANFRVEGDLRR | -1.55
15 | HMFERIYVFSRDGDIIELPKGSTVLDFAYHVHTHVGNRAQAARVNKRYVPLTYQLKTGEQVEIIIS | -1.44
16 | HMELDIGKKAIVIEKIDPEAGTGRVRIEGVDWGAKTADSSVIEKGETVVVKAKGAAFVTVAK | 0.0983
17 | HMSDTLPRLLWNFQMAKRLDEMNGAEKRRYQLVLIHPQASEKERDYASSFAHQARMLGIEVAIRDS | -0.395
18 | HMIENITIELNKKALALDFELNKDLPEGVLETIPTLVSLMVRFDPLTVSYHFLRDYIDALLESNLNVDL | -0.0886
19 | HMFYLPEPLTEQELRILGMLLDGRSNPEIAAELFIAVGTAKWHVHNILQKLGVANRAQAIVKAHELGLT | -2.08
20 | HMRFKPLAEILAAVQTRYAGRVLDVELDRDQAGRNVYEVKLLAADGSRREIHIDAVTGKEVSL | -0.56
21 | HMSLSIKINHESVGLRLDQFLQEHYYKQQSRSYVQHAIKEGYILVNGQSVKNGYMLKLDDLIELEAI | -4.5
22 | HMRQTGWVTADSLNVRARPSLQAERVEKVTYGQQVQIMFKQGQWYQIATENGKIGWVSSEYIAAVSP | -2.4
23 | HMGDFLLQVDFPPALLEMLPEGKRQAAIGVLSHDPRPAYQRTPGRVYGLNFAGHNIRFAVSENLLTVLEV | -2.16
24 | HMAFIEADIGKRIKSLRNKKRITLESLAAETGFTKGYLSKVETSEKAPPVSTLGSIARALGVSISTLLGE | -1.31
25 | HMSEVSEILTRARFFAGVKTDAELSTLLKIPYGTLIGWKTRKNIPESRIAQMALILGIRRDTLIPA | -1.86
26 | HMHTNNALWAIADDMRARKDDGEFDTYREGYKWAANNIVKEGIHITAIKLEKAYHKAKSEGKV | -0.139

Row | Sequence | soluble fraction (log2)
27 | HMNALREVNTSILNVRSGAGTNYSKIGSLTQATRVSVISESNGWSKINYNGKVGYVSSQYLS | -1.53
28 | HMTYSAWIEKAYSELEKKGITEAELSDALDKRGINLEDLKLMGPDEAVKYQSEVEGVVLELSKSKE | 0.154
29 | HMQVSDANQLTDVVKSIIKQYPVEVEKYKSGKKALFGFFMGKVMENLKGKSNPKILKNVLTEILD | 0.22
30 | HMTYGYFELKAKNLDSLKQFLKGIAQVESIEEENNGLKVFLKNELESEELSEKLAEAKIFVSHLAKKK | -0.265
31 | HMKVIETKYNTYVVKSGDTLYSVAKKYGISVTELKEINDLSNNTLSIGQKLLVPATTIIIDE | -0.637
32 | HMELKYIDYDEALVVYAKTVTASGGGLSGVKDEGGIRKVLDFVQNDLYYPTFVDKLTYLVFGL | 0.168
33 | HMADQIIEGILGKEGGYVNNPNDKGGPTRWGITQTTARAYGYSGDMKALPRDTAKAIYLSQYWT | -0.0711
34 | HMEGDKEIPNVIGKSINDAKKILEQAGLKLGEVKKVNDSSVAKNVVLSTNPNAGTKVSAGDAVSITVAEG | 0.106
35 | HMSELDASYLGQRVRYVSGFTETDPSEGLVEFRGSNWRARAEHPPLDHSGHWVIVKVESNTLWVEEKSN | -1.57
36 | HMGVRDIRIFERNNSFFVNAEIRGEAQLSVPITRTDYQLFKENKIDALSLVEKYYAEELNASNEMK | 0.234
37 | HMNTWVEIFRAEDQGQIRDASLVLLAVKVAHRVDMNSSSAPWSLMVPAQDQQRAHHELTTYWQENAH | -2.03
38 | HMAQASEPMLALIRLKWWEEQINSPVKGDSLPLLSQLNSHISAGYLSRSQVTSLIQRWQDYA | -0.983
39 | HMTVTLTTLRNGSTGAQVKTLQRLLSAMDYYNGETDGKFGISTAAAVKAFQRAKRLTVDGIVGKNTWTALL | -1.2
40 | HMVRSLESESVYDRQRAYEIAYQLRTEERPYSFIATQLNKAGLRPQKAARYEWYSVQELLRSA | -1.38
41 | HMPELTASDEADLKALVGGDQGFEQMANWARSNLGEEEINRFDAVVDSNNKDAIHMAIQAMQARMNA | -0.107
42 | HMVAADTVQVPDVTGKTVADAKQALISAGLQVGTVTAKDGKETANTILETSPAAGTSVDKGSKVNLVYSTG | 0.00808
43 | HMKSVTVIFKESGNVVSSKKLSVVATAQYVDKSRITAPAGYRIATTDSKLKISENNTVTVEVK | -0.496
44 | HMSENEVQAKVKEIVDRYAGDKSALIAILQDVQDEYRYLPKEALVSIQQQMNIPLSRVYEVATFYDAFS | -0.556
45 | HMAYVDWYENKQPTHEEAFKKLLGRIHPGAIVLLHSTSKTNGEILDELLTKWEEMGYRFGTLDELTGN | -1.58
46 | HMTATKDLPFSTFITEVEKGNITSVDIKGNQIEGTFSNGAKFKTYSPNYPNLVERLADKGVAISAGPS | 0.0934
47 | HMGAGLDDLVRKSLHNAGLKADDNVVSWISGNLGSDRMVSRMELEKLVLFVAGQSEITLEDAQAVIGD | -0.524
48 | HMLAQDVIVKQDGGTILSKVLEIGTQEIAYKKWNSQDGPVYKIAKDQVLSVNYQNGEVDRFA | -0.00975
49 | HMNLNIGNNIKNIRKSKNMTQTDFAELMGLSRSYIGDLENNRSNPSIKTLEAIARALDVPIVALIN | -0.528
50 | HMVAAITDLPVKSVNGRQMYYYVVRKGETVYSLTHTLGITHDRLVKANRSVEDGLRAGQILYFPVSEFG | -2.95
51 | HMDDFGERLRKLRVAQDLTQQQLGEKLGVVPSTIGKYEKVKDSYPSIEVLIKLSDFFSVSTDYLLKG | -2.19
52 | HMLAYQRTYEKILEDLRNDVYPVNSLLPPEPKLEEIYHVSRTTVRRAIAQLADEGYVKVKQGYGTVVLKN | -2.02

Row | Sequence | soluble fraction (log2)
53 | HMSMSLQFLSRRIRLQREKRGLKQHDIAHALQISPQAVSKWERGENAPDIALLRPLAGLLGVSIDWLMGGD | -3.27
54 | HMKEEVEILGGKATIYTNDYGVWQFRLWLTTDNKYVRKSLRTKVKDYAITEGEKLYIQIRSDIEKGIKYY | -1.13
55 | HMSNLLKNILDVLEKEGPLKARKIALLLDSTRTTITHTTINSELYKALDLEGLTKNEQNIWSYVT | 0.145
56 | HMELLPAERRQQLVDWFKSNQAGTSQDLARMFGISVSTIRRDLDLLASEGLVKRTHGGAVSIR | -0.055
57 | HMNAMKPVLTVSLGVHTDSLSRRLNEEGIIYRWQQAASEQLLLVDSESSSERIAELIHDWRLEQSSS | -0.0158
58 | HMAPLADQIVDLLKEHDGFLPLHDNSSPEDIRATVGTSKKAFKQAIGGLFREKRIVIGPTGIRLIS | -0.694
59 | HMPQPDVIEVRQGIVTGMRPDRRTGWLRDEEDAAGEPKSFSIDVITPKGRTPGKGAVVTYTLTNGKITEVK | -0.047
60 | HMTGAEGKLARYLLTVPSGEPLRLSATDLAKRLGISRASLYRAFQALEDARLIRREGKSMYVLDPAGLEGV | -0.723
61 | HMQEDQKTSIFDIEGVEKGVASVLSSIKVEIVSDLLEADMDDILKSGKISEDDLDGVYEAVQNFVER | 0.41
62 | HMNKVDEEKNAELVSTIQNKFSDVSAATKKKVKAFMAEHDIPNFKNADEIPTANLEAIVAMLNED | 0.255
63 | HMLRGKNALMSQLDQIQGIGPKRKRALFNHFLTLDAIKQADVETLRQAPGMNLPAAEQVYRHFHM | -0.2
64 | HMGPAVGAIRVEGNKRVEPETVRTYLTFNVGDPYDLAKVDESLKALFATGLFQDVRIRREGNTVVIVVVEN | -0.701
65 | HMVKLQATPSQRKTLDELYVQLKKLEPTAKEDLSLLRRLENSHLVSKQEAQGLISKAIGRVGALAVEQQP | 0.0219
66 | HMKDNPNETFERIAGKITRTLRSGPVRIQQLDLLFSESAGKVVDVLRAMAENGEVLIKDDTIQLNGNN | -0.0108
67 | HMDLPREKRIEIGLTYIYGIGLKTSQKILAATGIDPNTRVKDLDETTVSKLREYIDHNYRVEGELRS | -1.32
68 | HMDQINNDLRKLIEFLPEDQKTVLKMRHFQEMSFKEIAKATGVSINTALGRMRYALINLRKLIEENEI | -2.06
69 | HMDERLAKLTPQERKILDLIAEGATNRQIGTELHLAEKTVKNYVSNMLMKLGMSRRTEAAVFAVKASIN | -1.9
70 | HMKKVSVKPILELRAAGISMRKIETLMHVSRHTISAIYKAADAYSISWDNVKDFDEDKIYEMLFPPTP | -4.13
71 | HMRTNVDISPKILEWVLSQVRNRTTNDVIETIQIWIKGEKPPTFNQVEKISKATGVPLGYFFLKTPPVED | -1.34
72 | HMTFVHTQIEATKEWIISHPLDKHPAVAVVDSAGSIVIGEVDYISKSIVRLRFTAEFSGKAYL | -2.06
73 | HMEKTEQMQVILDYIARYGEINNEKVQEILGVKRTRAYTILKQMVENGFVTTNGRGEEKKYYSIR | -1.25
74 | HMDREQLELYVGEVRVLQVGELRRIAIGNGKVLQASALDRGQLLLIPEAPGQSVLYLWTRDGTERHLSISV | 0.0104
75 | HMGVKHKHKGAGELLAALRTMFPNSSVSTLRKMLTQGRVVLNGEVVHRAKHELTDGDTIEVLERQRAER | 0.0384
76 | HMSESAGKAFDLLFYLAKAGETVSLARLSRETGMNKATALRYLNVLESKGVVERSKLGWTLGLSLFELGSK | -2.96
77 | HMVPTVSVDRDDTLRFEGRPVDWDVLKRELGAVAGIDELKIYADAKVSALTVSKIMKSASEAGVLQFILVT | -0.0735
